Measurements published in PMC6508501, “Conserved redox‐dependent DNA binding of ROXY glutaredoxins with TGA transcription factors”.

Tests used:
[1] = biological target: mTRQ2-MpTGA (Marchantia polymorpha); test: FRET or BRET; FRET-FLIM; 2in1 vector, donor mTRQ2 on MpTGA, acceptor mVENUS on MpROXY; 40 nuclei of N. benthamiana leaves; mono- or biexponential decay of the donor
PAN (…);ROXY1 = biological target: T1, PAN (…);ROXY1 (Arabidopsis thaliana;Arabidopsis …, UniProt Q9SX27;Q96305 1-452;1-136, |); test: EMSA supershift; Redox EMSA per Gutsche & Zachgo 2016 (buffer, salt, pH, temperature not stated); 0.9 mM DTT (red) or 2 mM diamide (ox); 500 ng recombinant protein per reaction; native gel; conditions: tags: N-terminal MBP (per Methods);MBP, label: 5' 6-FAM, blunt
T1 sequence 1: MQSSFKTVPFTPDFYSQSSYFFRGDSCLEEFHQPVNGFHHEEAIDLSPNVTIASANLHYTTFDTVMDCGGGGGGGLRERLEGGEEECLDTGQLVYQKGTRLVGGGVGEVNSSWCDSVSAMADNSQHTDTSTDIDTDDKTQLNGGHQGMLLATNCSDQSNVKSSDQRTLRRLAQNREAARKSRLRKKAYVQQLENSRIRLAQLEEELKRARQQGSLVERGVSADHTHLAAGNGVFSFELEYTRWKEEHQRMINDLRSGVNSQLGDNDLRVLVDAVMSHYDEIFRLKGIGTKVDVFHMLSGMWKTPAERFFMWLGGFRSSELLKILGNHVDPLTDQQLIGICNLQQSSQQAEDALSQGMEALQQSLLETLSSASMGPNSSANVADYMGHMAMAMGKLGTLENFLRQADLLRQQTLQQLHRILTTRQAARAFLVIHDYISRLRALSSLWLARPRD
T1 sequence 2: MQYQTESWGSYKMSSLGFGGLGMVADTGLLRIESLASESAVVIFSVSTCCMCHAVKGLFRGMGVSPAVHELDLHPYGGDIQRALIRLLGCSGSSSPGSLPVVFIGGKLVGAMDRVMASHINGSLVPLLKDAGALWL

PAN (…);MpROXY2 = biological target: T2, PAN (…);MpROXY2 (Arabidopsis thaliana;Marchantia …, UniProt Q9SX27;A0A2R6WT88 1-452;1-179, |); test: as above; conditions: tags: N-terminal MBP (per Methods);N-terminal MBP, label: 5' 6-FAM, blunt
T2 sequence 1: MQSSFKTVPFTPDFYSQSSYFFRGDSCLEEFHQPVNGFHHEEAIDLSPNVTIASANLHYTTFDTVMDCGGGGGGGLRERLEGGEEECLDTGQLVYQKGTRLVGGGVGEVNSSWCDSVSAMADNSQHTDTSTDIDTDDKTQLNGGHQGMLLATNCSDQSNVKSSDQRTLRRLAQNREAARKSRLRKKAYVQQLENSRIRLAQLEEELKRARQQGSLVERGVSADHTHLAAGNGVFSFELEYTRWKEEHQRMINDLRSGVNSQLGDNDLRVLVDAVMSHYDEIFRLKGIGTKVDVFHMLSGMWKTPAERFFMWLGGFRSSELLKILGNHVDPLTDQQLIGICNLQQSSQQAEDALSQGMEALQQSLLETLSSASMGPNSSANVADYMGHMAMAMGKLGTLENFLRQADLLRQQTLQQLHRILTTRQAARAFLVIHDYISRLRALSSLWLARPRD
T2 sequence 2: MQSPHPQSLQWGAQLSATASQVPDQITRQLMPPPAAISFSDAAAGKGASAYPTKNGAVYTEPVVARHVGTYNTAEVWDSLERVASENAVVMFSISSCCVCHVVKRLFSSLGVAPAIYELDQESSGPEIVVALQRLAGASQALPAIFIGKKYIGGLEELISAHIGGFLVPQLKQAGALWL

MpROXY2 = biological target: T3, MpROXY2 (Marchantia polymorpha (ssp. ruderalis, …, UniProt A0A2R6WT88 1-179)); test: EMSA; 0.9 mM DTT or 2 mM diamide; Redox EMSA per Gutsche & Zachgo 2016 (buffer, salt, pH, temperature not stated); 0.9 mM DTT (red) or 2 mM diamide (ox); 500 ng recombinant protein per reaction; native gel; conditions: tags: N-terminal MBP, label: 5' 6-FAM, blunt
T3 sequence: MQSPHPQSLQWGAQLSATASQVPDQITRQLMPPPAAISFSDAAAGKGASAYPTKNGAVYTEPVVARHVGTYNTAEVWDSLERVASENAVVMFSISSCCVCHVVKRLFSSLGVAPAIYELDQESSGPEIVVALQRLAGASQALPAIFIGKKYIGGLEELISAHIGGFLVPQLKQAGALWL

PAN (…) = biological target: T4, PAN (…) (Arabidopsis thaliana, UniProt Q9SX27 1-452); test: EMSA; Redox EMSA per Gutsche & Zachgo 2016 (buffer, salt, pH, temperature not stated); 0.9 mM DTT (red) or 2 mM diamide (ox); 500 ng recombinant protein per reaction; native gel; conditions: tags: N-terminal MBP (per Methods), chain copies: 2, label: 5' 6-FAM, blunt
T4 sequence: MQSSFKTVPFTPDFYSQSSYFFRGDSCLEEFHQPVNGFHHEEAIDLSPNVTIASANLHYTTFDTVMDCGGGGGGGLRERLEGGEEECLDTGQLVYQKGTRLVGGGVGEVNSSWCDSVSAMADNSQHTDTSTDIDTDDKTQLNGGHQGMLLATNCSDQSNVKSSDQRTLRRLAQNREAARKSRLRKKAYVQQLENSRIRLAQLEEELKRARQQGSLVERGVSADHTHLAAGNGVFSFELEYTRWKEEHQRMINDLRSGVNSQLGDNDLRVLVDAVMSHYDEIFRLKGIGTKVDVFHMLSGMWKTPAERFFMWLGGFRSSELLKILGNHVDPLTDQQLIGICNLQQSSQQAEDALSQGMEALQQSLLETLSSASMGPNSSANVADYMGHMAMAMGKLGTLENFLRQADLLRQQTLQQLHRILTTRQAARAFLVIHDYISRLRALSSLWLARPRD

## mVENUS-MpROXY2 (natural protein)
[1]
  reduced donor fluorescence lifetime (τDA): < 2 ns

## mVENUS-MpROXY1 (natural protein)
[1]
  reduced donor fluorescence lifetime (τDA): < 2 ns

B1: as-1-like (dsDNA)
DNA 1: CTACGTCACTATTTTACTTACGTCATAG
DNA 2: CTATGACGTAAGTAAAATAGTGACGTAG
PAN (…);ROXY1
  binding result: binds
PAN (…);MpROXY2
  binding result: binds
MpROXY2
  binding result: no binding
PAN (…)
  binding result: binds
